From CN111138536A (REYOUNG (SUZHOU) BIOPHARMACEUTICAL CO LTD, dated 2020)

Target: T1, 人血清白蛋白 (human, UniProt P02768 25-609)
T1 construct: also called HSA; human serum albumin
Assay: SPR (Biacore T200); HSA amine-coupled to CM5 chip, NB4 as analyte

B1: 单域抗体NB4 (VHH)
VHH: QVQLQESGGGSVQAGGSLRLACAASGYTYSSACMAWFRQAPGKEREKVATIYTGGTYPYYADSVKGRFTMSHDNAKNTVYLQMNSLKPEDTGMYYCAADASWGCRLSGSWGAKYNNWGQGTQVTVSS
notes: Camel-derived VHH, expressed in E. coli BL-21 from pET-22 with a C-terminal 6x His tag and purified on a nickel column; also called 抗人血清白蛋白单域抗体
Work on B1 yielded a Kd of 0.245 nM.
